From patent publication US20260055162A1

Assays:
Experiment in all cases: cell-based or functional assay
[1] = target: AA-TGFB-007 (TGFB-007), TGF-BR2 ECD-TGFBR2 TM-TGFBR2 truncated ICD (Homo sapiens (Human)) (UniProt P37173)
[2] = target: AA-TGFB-052 (TGFB-052), TGF-BR2 ECD-CD28 TM-41BB ICD
[3] = target: AA-TGFB-056 (TGFB-056), TGF-BR2 ECD-CD28 Long TM-SLP76 ICD
[4] = target: AA-TGFB-059 (TGFB-059), TGF-BR2 ECD-CD28 Long TM-TRAF1 ICD
[5] = target: AA-TGFB-060 (TGFB-060), TGF-BR2 ECD-CD28 Long TM-TRAF2 ICD
[6] = target: AA-TGFB-062 (TGFB-062), TGF-BR2 ECD-CD28 Long TM-TRAF6 ICD
[7] = target: AA-TGFB-064 (TGFB-064), TGF-BR2 ECD-CD28 Long TM-TIRAP ICD
[8] = target: AA-TGFB-065 (TGFB-065), TGF-BR2 ECD-CD28 Long TM-BLNK ICD
[9] = target: AA-TGFB-066 (TGFB-066), TGF-BR2 ECD-CD28 Long TM-GRB2 ICD
[10] = target: AA-TGFB-067 (TGFB-067), TGF-BR2 ECD-FCGR2A TM-FCGR2A ICD
[11] = target: AA-TGFB-069 (TGFB-069), TGF-BR2 ECD-2B4 TM-2B4 ICD
[12] = target: AA-TGFB-070 (TGFB-070), TGF-BR2 ECD-SLAMF1 TM-SLAMF1 ICD
[13] = target: AA-TGFB-078 (TGFB-078), TGF-BR2 ECD-CSF1R TM-CSF1R ICD
[14] = target: AA-TGFB-084 (TGFB-084), TGF-BR2 ECD-NKp30 TM-NKp30 ICD
[15] = target: AA-TGFB-091 (TGFB-091), TGF-BR2 ECD-CD28 Long TM-Syk ICD
[16] = target: AA-TGFB-094 (TGFB-094), TGF-BR2 ECD-CD28 Long TM-Lyn ICD
[17] = target: AA-TGFB-095 (TGFB-095), TGF-BR2 ECD-CD28 Long TM-YES1 ICD

AA-TGFB-059 (TGFB-059), TGF-BR2 ECD-CD28 Long TM-TRAF1 ICD, sequence (chain, as listed by the source limits assumed, form in doubt): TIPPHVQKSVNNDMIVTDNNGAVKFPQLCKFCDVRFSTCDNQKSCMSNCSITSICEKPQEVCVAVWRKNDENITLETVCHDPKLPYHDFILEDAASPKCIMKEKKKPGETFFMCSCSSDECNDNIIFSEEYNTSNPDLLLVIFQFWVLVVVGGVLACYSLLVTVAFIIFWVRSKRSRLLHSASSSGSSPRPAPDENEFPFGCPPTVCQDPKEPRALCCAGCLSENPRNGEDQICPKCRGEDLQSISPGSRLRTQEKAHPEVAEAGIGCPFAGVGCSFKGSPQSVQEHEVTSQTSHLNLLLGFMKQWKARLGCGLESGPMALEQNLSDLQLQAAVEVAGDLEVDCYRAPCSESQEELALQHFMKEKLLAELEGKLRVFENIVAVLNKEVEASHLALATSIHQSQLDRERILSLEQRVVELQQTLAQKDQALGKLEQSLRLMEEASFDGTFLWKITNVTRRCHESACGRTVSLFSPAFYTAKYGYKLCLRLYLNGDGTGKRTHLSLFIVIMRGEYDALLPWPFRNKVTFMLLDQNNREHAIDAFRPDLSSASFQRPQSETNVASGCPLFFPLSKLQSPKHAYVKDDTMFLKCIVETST
AA-TGFB-066 (TGFB-066), TGF-BR2 ECD-CD28 Long TM-GRB2 ICD, sequence (chain, as listed by the source limits assumed, form in doubt): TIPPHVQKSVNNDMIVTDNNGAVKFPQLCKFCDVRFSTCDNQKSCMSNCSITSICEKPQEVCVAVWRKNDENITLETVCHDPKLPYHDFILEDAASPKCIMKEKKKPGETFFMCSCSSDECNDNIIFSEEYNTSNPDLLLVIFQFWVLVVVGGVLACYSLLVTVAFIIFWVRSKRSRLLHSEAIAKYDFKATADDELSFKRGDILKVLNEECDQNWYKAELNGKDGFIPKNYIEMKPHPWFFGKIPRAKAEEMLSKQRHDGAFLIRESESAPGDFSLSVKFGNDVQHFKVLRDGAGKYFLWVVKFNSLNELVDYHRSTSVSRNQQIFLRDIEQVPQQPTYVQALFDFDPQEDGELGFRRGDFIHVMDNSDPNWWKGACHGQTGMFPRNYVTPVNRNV
AA-TGFB-052 (TGFB-052), TGF-BR2 ECD-CD28 TM-41BB ICD, sequence (chain, as listed by the source limits assumed, form in doubt): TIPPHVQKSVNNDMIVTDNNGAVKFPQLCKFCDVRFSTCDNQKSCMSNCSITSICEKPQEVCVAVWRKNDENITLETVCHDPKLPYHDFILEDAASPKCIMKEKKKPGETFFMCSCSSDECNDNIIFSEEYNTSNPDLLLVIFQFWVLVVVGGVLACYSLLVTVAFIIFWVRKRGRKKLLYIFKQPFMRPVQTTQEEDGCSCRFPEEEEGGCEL
AA-TGFB-007 (TGFB-007), TGF-BR2 ECD-TGFBR2 TM-TGFBR2 truncated ICD (Homo sapiens (Human)), sequence (P37173 23-199, form in doubt): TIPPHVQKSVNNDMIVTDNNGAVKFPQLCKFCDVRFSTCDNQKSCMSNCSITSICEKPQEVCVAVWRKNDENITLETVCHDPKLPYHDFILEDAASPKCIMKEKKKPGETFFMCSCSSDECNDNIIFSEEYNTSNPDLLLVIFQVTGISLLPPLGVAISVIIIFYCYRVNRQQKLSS
AA-TGFB-056 (TGFB-056), TGF-BR2 ECD-CD28 Long TM-SLP76 ICD, sequence (chain, as listed by the source limits assumed, form in doubt): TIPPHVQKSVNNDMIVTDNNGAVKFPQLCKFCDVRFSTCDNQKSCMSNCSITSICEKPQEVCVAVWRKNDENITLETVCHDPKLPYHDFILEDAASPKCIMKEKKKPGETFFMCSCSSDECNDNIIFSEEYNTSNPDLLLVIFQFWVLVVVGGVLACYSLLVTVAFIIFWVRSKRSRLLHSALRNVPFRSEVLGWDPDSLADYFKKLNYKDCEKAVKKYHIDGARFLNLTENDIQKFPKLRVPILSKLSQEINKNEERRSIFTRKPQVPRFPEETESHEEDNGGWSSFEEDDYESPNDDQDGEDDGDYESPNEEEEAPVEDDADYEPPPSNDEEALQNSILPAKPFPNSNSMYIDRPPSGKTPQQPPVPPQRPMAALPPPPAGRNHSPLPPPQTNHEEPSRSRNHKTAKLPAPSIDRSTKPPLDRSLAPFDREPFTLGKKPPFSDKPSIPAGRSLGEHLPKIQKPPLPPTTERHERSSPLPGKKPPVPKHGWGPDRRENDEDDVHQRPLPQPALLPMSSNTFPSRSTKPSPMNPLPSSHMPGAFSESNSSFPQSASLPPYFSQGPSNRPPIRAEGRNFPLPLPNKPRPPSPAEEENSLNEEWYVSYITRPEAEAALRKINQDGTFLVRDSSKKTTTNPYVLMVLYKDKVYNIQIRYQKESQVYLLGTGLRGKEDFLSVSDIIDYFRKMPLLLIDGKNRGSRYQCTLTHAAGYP
AA-TGFB-062 (TGFB-062), TGF-BR2 ECD-CD28 Long TM-TRAF6 ICD, sequence (chain, as listed by the source limits assumed, form in doubt): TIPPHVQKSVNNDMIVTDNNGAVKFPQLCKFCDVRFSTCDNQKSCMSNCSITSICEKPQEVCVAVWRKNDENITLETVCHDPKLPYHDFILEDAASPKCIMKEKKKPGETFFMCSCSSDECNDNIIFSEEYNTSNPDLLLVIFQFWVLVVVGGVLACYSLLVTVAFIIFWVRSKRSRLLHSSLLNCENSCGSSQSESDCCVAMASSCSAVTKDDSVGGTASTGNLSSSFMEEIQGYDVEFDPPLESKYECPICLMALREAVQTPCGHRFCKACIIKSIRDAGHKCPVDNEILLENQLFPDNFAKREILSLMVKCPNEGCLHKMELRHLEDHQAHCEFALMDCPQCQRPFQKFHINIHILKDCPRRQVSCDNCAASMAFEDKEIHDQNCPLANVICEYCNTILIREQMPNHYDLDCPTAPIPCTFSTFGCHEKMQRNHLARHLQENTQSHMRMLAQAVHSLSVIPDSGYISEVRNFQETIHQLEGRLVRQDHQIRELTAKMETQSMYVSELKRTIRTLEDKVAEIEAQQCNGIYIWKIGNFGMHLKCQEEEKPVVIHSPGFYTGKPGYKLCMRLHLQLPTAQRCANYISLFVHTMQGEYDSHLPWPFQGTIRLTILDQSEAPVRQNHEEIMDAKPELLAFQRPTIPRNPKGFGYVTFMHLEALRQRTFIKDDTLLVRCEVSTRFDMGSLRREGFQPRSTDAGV
AA-TGFB-065 (TGFB-065), TGF-BR2 ECD-CD28 Long TM-BLNK ICD, sequence (chain, as listed by the source limits assumed, form in doubt): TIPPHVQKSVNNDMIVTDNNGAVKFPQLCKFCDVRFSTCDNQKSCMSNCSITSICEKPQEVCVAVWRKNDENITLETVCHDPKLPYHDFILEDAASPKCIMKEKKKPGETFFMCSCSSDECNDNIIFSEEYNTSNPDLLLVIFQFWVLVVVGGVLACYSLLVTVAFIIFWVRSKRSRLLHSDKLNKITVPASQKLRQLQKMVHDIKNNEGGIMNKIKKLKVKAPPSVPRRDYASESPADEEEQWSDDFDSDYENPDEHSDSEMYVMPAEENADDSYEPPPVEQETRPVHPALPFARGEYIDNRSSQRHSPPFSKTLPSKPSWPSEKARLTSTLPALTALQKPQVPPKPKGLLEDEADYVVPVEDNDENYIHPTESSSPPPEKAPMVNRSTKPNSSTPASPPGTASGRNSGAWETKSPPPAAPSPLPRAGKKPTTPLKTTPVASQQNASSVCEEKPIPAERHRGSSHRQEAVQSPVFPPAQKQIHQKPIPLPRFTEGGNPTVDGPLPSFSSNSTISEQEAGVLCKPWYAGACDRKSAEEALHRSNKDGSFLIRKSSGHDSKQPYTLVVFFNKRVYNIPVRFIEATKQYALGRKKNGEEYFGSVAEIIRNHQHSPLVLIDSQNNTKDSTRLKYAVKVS
AA-TGFB-069 (TGFB-069), TGF-BR2 ECD-2B4 TM-2B4 ICD, sequence (chain, as listed by the source limits assumed, form in doubt): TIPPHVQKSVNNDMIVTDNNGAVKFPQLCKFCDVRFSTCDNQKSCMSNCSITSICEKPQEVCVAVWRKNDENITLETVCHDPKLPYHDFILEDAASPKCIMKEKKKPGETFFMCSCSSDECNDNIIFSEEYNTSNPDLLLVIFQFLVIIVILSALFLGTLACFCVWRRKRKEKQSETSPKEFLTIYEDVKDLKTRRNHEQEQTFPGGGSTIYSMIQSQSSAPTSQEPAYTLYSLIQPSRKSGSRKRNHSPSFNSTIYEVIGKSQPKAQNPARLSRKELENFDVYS
AA-TGFB-094 (TGFB-094), TGF-BR2 ECD-CD28 Long TM-Lyn ICD, sequence (chain, as listed by the source limits assumed, form in doubt): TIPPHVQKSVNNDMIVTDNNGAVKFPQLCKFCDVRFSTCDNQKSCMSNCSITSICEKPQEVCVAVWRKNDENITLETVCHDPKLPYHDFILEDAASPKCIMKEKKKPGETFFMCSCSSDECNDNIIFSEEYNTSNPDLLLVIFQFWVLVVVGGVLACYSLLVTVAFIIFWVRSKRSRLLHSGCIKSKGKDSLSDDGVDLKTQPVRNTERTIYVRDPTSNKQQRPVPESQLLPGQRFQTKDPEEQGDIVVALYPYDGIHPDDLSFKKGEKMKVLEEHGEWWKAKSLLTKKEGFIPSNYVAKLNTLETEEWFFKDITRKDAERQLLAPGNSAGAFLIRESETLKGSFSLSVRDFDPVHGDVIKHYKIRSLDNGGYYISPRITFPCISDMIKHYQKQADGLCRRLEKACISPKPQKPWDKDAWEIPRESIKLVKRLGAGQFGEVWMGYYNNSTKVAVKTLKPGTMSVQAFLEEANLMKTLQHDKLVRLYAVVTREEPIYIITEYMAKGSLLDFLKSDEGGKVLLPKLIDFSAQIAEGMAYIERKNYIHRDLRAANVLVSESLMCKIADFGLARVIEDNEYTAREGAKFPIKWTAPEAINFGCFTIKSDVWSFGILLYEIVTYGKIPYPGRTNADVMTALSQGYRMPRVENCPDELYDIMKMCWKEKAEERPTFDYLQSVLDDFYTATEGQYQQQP
AA-TGFB-084 (TGFB-084), TGF-BR2 ECD-NKp30 TM-NKp30 ICD, sequence (chain, as listed by the source limits assumed, form in doubt): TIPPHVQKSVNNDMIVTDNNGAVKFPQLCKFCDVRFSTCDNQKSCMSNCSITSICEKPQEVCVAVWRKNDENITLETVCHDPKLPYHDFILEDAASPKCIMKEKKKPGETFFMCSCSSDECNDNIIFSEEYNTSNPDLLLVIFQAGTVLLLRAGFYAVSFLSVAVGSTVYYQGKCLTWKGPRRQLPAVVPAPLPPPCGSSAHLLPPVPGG
recombinant TGF-B1 cytokine, sequence (P01137 279-390 limits assumed): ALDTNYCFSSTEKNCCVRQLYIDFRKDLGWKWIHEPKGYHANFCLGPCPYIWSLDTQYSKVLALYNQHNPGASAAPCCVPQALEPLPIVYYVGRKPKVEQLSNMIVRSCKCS

recombinant TGF-B1 cytokine (from UniProt P01137 279-390) (ligand)
5-Day Fold Expansion of NK cells, 10 ng/mL TGF-B1 [1]: 2 fold
Average % Killing (SKOV-3), 10 ng/mL TGF-B1 [1]: 24.1%
Average IFNg Secretion, 10 ng/mL TGF-B1 [1]: > 9000 pg/mL
Average IP-10 Secretion, 10 ng/mL TGF-B1 [1]: 2150
CD69, fold-change of MFI over no stimulation, High (0.05 ug/mL) [1]: 1.2 fold
CD69, fold-change of MFI over no stimulation, Low (0.002 ug/mL) [1]: 1.4 fold
CD69, fold-change of MFI over no stimulation, Med. (0.01 ug/mL) [1]: 1.2 fold
GFP, fold-change of MFI over no stimulation, High (0.05 ug/mL) [1]: 0.8 fold
GFP, fold-change of MFI over no stimulation, Low (0.002 ug/mL) [1]: 0.7 fold
GFP, fold-change of MFI over no stimulation, Med. (0.01 ug/mL) [1]: 0.7 fold
5-Day Fold Expansion of NK cells, 10 ng/mL TGF-B1 [2]: 1.57 fold
Average % Killing (SKOV-3), 10 ng/mL TGF-B1 [2]: 12.8%
Average IFNg Secretion, 10 ng/mL TGF-B1 [2]: 8770 pg/mL
Average IP-10 Secretion, 10 ng/mL TGF-B1 [2]: 976
5-Day Fold Expansion of NK cells, 10 ng/mL TGF-B1 [3]: 0.41 fold
Average % Killing (SKOV-3), 10 ng/mL TGF-B1 [3]: 2.07%
Average IFNg Secretion, 10 ng/mL TGF-B1 [3]: 1.68 pg/mL
5-Day Fold Expansion of NK cells, 10 ng/mL TGF-B1 [4]: 0.9 fold
Average % Killing (SKOV-3), 10 ng/mL TGF-B1 [4]: 7.99%
Average IFNg Secretion, 10 ng/mL TGF-B1 [4]: 3060 pg/mL
Average IP-10 Secretion, 10 ng/mL TGF-B1 [4]: 1300
5-Day Fold Expansion of NK cells, 10 ng/mL TGF-B1 [5]: 1.11 fold
Average % Killing (SKOV-3), 10 ng/mL TGF-B1 [5]: 8.77%
Average IFNg Secretion, 10 ng/mL TGF-B1 [5]: 3070 pg/mL
Average IP-10 Secretion, 10 ng/mL TGF-B1 [5]: 1230
5-Day Fold Expansion of NK cells, 10 ng/mL TGF-B1 [6]: 1.41 fold
Average % Killing (SKOV-3), 10 ng/mL TGF-B1 [6]: 8.4%
Average IFNg Secretion, 10 ng/mL TGF-B1 [6]: 3010 pg/mL
Average IP-10 Secretion, 10 ng/mL TGF-B1 [6]: 1370
5-Day Fold Expansion of NK cells, 10 ng/mL TGF-B1 [7]: 1.04 fold
Average % Killing (SKOV-3), 10 ng/mL TGF-B1 [7]: 9.89%
Average IFNg Secretion, 10 ng/mL TGF-B1 [7]: 4790 pg/mL
Average IP-10 Secretion, 10 ng/mL TGF-B1 [7]: 1540
5-Day Fold Expansion of NK cells, 10 ng/mL TGF-B1 [8]: 0.71 fold
Average % Killing (SKOV-3), 10 ng/mL TGF-B1 [8]: 9.68%
Average IFNg Secretion, 10 ng/mL TGF-B1 [8]: 3130 pg/mL
Average IP-10 Secretion, 10 ng/mL TGF-B1 [8]: 1030
5-Day Fold Expansion of NK cells, 10 ng/mL TGF-B1 [9]: 1.44 fold
Average % Killing (SKOV-3), 10 ng/mL TGF-B1 [9]: 8.89%
Average IFNg Secretion, 10 ng/mL TGF-B1 [9]: 3270 pg/mL
Average IP-10 Secretion, 10 ng/mL TGF-B1 [9]: 1240
5-Day Fold Expansion of NK cells, 10 ng/mL TGF-B1 [10]: 1.6 fold
Average % Killing (SKOV-3), 10 ng/mL TGF-B1 [10]: 11.8%
Average IFNg Secretion, 10 ng/mL TGF-B1 [10]: 4640 pg/mL
Average IP-10 Secretion, 10 ng/mL TGF-B1 [10]: 1040
5-Day Fold Expansion of NK cells, 10 ng/mL TGF-B1 [11]: 3.86 fold
Average % Killing (SKOV-3), 10 ng/mL TGF-B1 [11]: 14.4%
Average IFNg Secretion, 10 ng/mL TGF-B1 [11]: > 9000 pg/mL
Average IP-10 Secretion, 10 ng/mL TGF-B1 [11]: 2340
5-Day Fold Expansion of NK cells, 10 ng/mL TGF-B1 [12]: 4.03 fold
Average % Killing (SKOV-3), 10 ng/mL TGF-B1 [12]: 13.2%
Average IFNg Secretion, 10 ng/mL TGF-B1 [12]: 7690 pg/mL
Average IP-10 Secretion, 10 ng/mL TGF-B1 [12]: 1630
5-Day Fold Expansion of NK cells, 10 ng/mL TGF-B1 [13]: 2.14 fold
Average % Killing (SKOV-3), 10 ng/mL TGF-B1 [13]: 15.2%
Average IFNg Secretion, 10 ng/mL TGF-B1 [13]: 6320 pg/mL
Average IP-10 Secretion, 10 ng/mL TGF-B1 [13]: 1000
5-Day Fold Expansion of NK cells, 10 ng/mL TGF-B1 [14]: 2.19 fold
Average % Killing (SKOV-3), 10 ng/mL TGF-B1 [14]: 13.7%
Average IFNg Secretion, 10 ng/mL TGF-B1 [14]: 4870 pg/mL
Average IP-10 Secretion, 10 ng/mL TGF-B1 [14]: 1340
5-Day Fold Expansion of NK cells, 10 ng/mL TGF-B1 [15]: 0.24 fold
Average % Killing (SKOV-3), 10 ng/mL TGF-B1 [15]: 1.9%
5-Day Fold Expansion of NK cells, 10 ng/mL TGF-B1 [16]: 1.2 fold
Average % Killing (SKOV-3), 10 ng/mL TGF-B1 [16]: 16.5%
Average IFNg Secretion, 10 ng/mL TGF-B1 [16]: > 9000 pg/mL
Average IP-10 Secretion, 10 ng/mL TGF-B1 [16]: 3210
5-Day Fold Expansion of NK cells, 10 ng/mL TGF-B1 [17]: 1.69 fold
Average % Killing (SKOV-3), 10 ng/mL TGF-B1 [17]: 11.8%
Average IFNg Secretion, 10 ng/mL TGF-B1 [17]: 6080 pg/mL
Average IP-10 Secretion, 10 ng/mL TGF-B1 [17]: 1890
